In the nanobody polyreactivity screen of Harvey et al. (2022):

Experiment: yeast display, Sf9 membrane polyspecificity reagent, FACS + sequencing; frameworks hold sequencing errors
Method in brief: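 Galactose-induced (36–48 hours) yeast carrying a synthetic nanobody display library were exposed to 10% biotinylated, detergent-solubilized Sf9 membrane reagent at 4 °C for 1 hour. FACS followed streptavidin microbead enrichment, using low and high (top ~1%) gates for expression (anti-HA) and reagent binding (streptavidin). Colony PCR, MiSeq 2 × 250 sequencing and CDR-length filtering followed. Labels for polyreactivity reflect the gate of origin.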

Sequence	polyreactivity (PSR sort gate)
QVQLVESGGGLVQAGGSLRLSCAASGFIFRQNAMGWYRQAPGKERELVAAITSSGGRTYYADSVKGRFTISRDNAKNTVYLQMNSLKPEDTAVYYCARRDYWGQGTQVTVSS	high polyreactivity
QVQLVESGGGLVQAGGSLRLSCAASGRIFPTSTKGWYRQAPGKERELVAAITSGGTTYYADSVKGRVTISRDNAKNTVYLQMNSLKPEDTAVYYCAALRPRRGYYYWGQGTQVTVSS	high polyreactivity
QVQLVESGGGLVQAGGSLRLSCAASGSTFKSYAMGWYRQAPGKERELVAAINWSGGSTYYADSVKGRFTISRDNAKNTVYLQMTSLKPEDTAVYYCNALYAVRSYDSWGQGTQVTVSS	high polyreactivity
QVQLVESGGGLVQAGGSLRLSCAASGRIFPFYAMGWYRQAPGKERELVAAISTRGGSTYYADSVKGRFTISRDNAKNTVYLQMNSLKPADTAVYYCAADVQAVGYDYWGQGTQVTVSS	high polyreactivity
QVQLVESGGGLVQAGGSLRLSCAASGRTFVLYAMGWYRQAPVKERELVASITWSGVSTTYADSVKGRFTISRDNAKNTVYLQMNSLKPEDTAVYYCAKDGLFEQGYPYQLGYWGQGTQVTVSS	low polyreactivity
QVQLVESGGGLVQAGGSLRLSCAASGRTFDAYAMGWYRQAPGKERELVATITSGGGTYYADSVKGRFTISRDNEKNTVYLQMNSLKPEDYAVYYCNKRYVVSRKYDYWGQGTQVTVSS	low polyreactivity
HVQLVESGGGLVQAGGSLRLSCAASGFIFWRYAMGWYRQAPGKERELVAAISVSGTRTYYADSVKGRFTISRDNAKNTVYLQMNSLKPEDTAVYYCAADRYYGEDYWGQGTQVTVSS	high polyreactivity
QVQLVESGGGLVQAGGSLRLSCAASGRIFLWYAMGWYRQAPGKERELVAAISSNGGSTRYADSVKGRFTISRDNAKNTVYLQMNSLKPVDNAVYYCNADVHWNRYPYGGNGYGYWGQGTQVTVSS	low polyreactivity
QVQLVESGGGLVQAGGSLRLSCAASGSTFETYAMGWYRQAPGKERELVATISLSGGRTYYADSVKGRFTISRDNAKNTVYLQMNSLKPEDTAVYYCNADGYGNVGGGDSWGQGTQVTVSS	low polyreactivity
QVQLVESGGGLVQAGGSLRLSCAASGSTFRYNAMGWYRQAPGKERELVAAINRGGGTDYADSVKGRFTISRDNAKNTVYLQMNSLKPEDTAVYYCNATTGYGGYNYWGQGTQVTVSS	low polyreactivity
QVQLVESGGGLVQAGGSLRLSCAASGRTLDYNAMGLYRQAPGKERELVAAISWTGDSTYYADSVKGRFTISRDNAKNTVNLQMNSLKPEDTAVYYCAASYSRFVDWIGDPGYDYWGQGTQVTVSS	low polyreactivity
QVQLVESGGGLVQAGGSLRLSCAASGSLVGYYPMGWYRQAPGKERELVAAISRSGGSTYYADSVKGRFSISRDNAKNTVYLQMNSLKPEDTAVYYCATSRVRSAGRDYWGQGTQVTVSS	high polyreactivity
QVQLVESVGSLVQAGVSLRLSCAASGFILYANAMGWYRQAPGKERELGAAISRGTSTYYADSVKGRFTISRDNAKNTVYLQMTSLKPEDTAVYYCATSSYRPWGGYYWGQGTQVTVSS	high polyreactivity
QVQLVESGGGLVQAGGSLRLSCAASGSTFSFNDMGWYRQAPGKERELVADISWSGDTTYADSVKGRFTISRDNAKKTVYLQMNSLKPEDTGVYYCDADRHRYQGYTYDYWGQGTQVTVSS	high polyreactivity
QVQLLESGGGLFQAGGSLRLSCAASGLTFYRYAMGWYRKAPGKERELVAAISFSGGSTYYADSVKGRFTISRDNAKNTVYLQMNSLKPEDTAVYYCAASSYPYGYDYWGQGTQVTVSS	high polyreactivity
QVQLVESGGGLVQAGGSLRLSCAASGIIFRPYAMGWYRQAPGKERELVAAITGSGVSTYYADSVKGRFTISRDNAKNTVYLQMNSLKPEDTAVYYCAKRYNRGYHRYDYWGQGTHVTVSS	low polyreactivity
QVQLVESGGGLVQAGGSLRLSCAASGFTFSKYAMGLYRQAPGKERELVAAITRRGSSTYYADSVKGRFTLSRDNAKNTVYLQMNSLKPEDTAVYYCNAPRPNGYLGEDNYWGQGTKVTVSS	high polyreactivity
QVQLVESGGGLVQAGGSLRLSCAASGSIFYYNAMGWYRQAPGKERELVAAISWGDGITYYADSVKGRFTISRDNAKNTVYLQMNSLKPEDTAVYYCAVDYYYLAFEYWGQGTQVTVSS	high polyreactivity
QVQLVESGGGLVQAGGSLRLSCAASGSTFLYNAMGWYRQAPGKERELVAAITIGGGSTYYADSVKGRFTISRDNAKNTVYLQMNSLKPEDTAVYYCNKGSYYWWDPGSTYIDDYWGQGTQVTVSS	low polyreactivity
QVQLVESGGGLVQAGGSLRLSCAASVRTFWYNAMGWYRQAPGKERELVAVISSGAITYYADSVKGRFTISRDNAKNTVYLQMNSLKPEDTAVYYCNAQRRGTYYWGQGTQVTVSS	high polyreactivity
QVQLVESGGGFVQAGGSLRLSCAASGSIFSVNTMGWYRQAPGKERELVATIRTGDSTNYADSVTGRFTISRDNAKNTVYLQMNSLKPEDTAVDYCAAEWSSLNFDYWGQGTQVTVSS	low polyreactivity
QVQLVESGGGLVQAGGSLRLSCAASGYIFPRYAMGWYRQAPGKERELVAAISYSGGSTYYADSVKGRFTISRDYAKNTVYLQMNSLKPEDTAVYYCNAYFLSQYQSAYRDDYWGQGTQVTVSS	high polyreactivity

Sequence	polyreactivity (PSR sort gate)
QVQLVESGRGLVQAGGSLRLSCAPSGSNFPPNAMGWYRQAPGKEREFVASITSSGGITNYADSVKGRFTISRDNAKNTVYLQMNSLKPEDTAVYFCAAVQTWRWVYARDYWGQGTQVTVSS	high polyreactivity
QVQLVESGGGLVQAGGSLRLSCAASGRTFFWYAMGWYRQAPGKEREFVAAITWRTGSTYYADSVKGRFTISRDNAKNTVYLQMNSLKPEDTAVYYCAAEYPWSYATYYYWGQGTQVTVSS	high polyreactivity
QVQLVESGGGLVQAGGSLRLSCAASGRIFAYYAMGWYRQAPGKERELVATISVTGGSTYYADSVKGRFTISRDNAKNTVYLQMNSLKPEDTAVYYCNVDPGTYWPYSGEDYWGQGTQVTVSS	low polyreactivity
QVQLVESGGGLVQAGGSLRLSCAASGFTFAKYAMGWYRQAPGKERELVAAISSSGGRTYYADSVQGRFTISRDNAKNTVYLQMNSLKPEDTAVYYCAADFSGPFDYWGQGTQVTVSS	high polyreactivity
QVHLVESGGGLVHAGGRLRLSCAASGRIFGLNAMGWYRQAPGKERELVAAIDIIGGSTYYADSVKGRFTISRDNAKNTVYLQMNSLIPEDTAVFYCAAEADFWRFVEFDYWGQGTQVTVSS	low polyreactivity
QVQLVESGGGLVQAGGSLRLSCAASGSTFRIYAMGWYRQQHGKESEFVAAITGGGTHYADSVKGRFTISRDNAKNTVYLQMNRLKPEDTAVYFCAAGYFIRTLSRYRYDYWGQGTQVTVSS	high polyreactivity
QVQLVESGGGLVQAGGILRLSCAASGHIFFYYNMGWYRQAPGKERELVAGITIGGSTNYADSVKGRFTISRDNAKNTVNLQMNSLTPEDTAVYYCAKGGEVSQGYTDEYDYWGLGTQVTVSS	low polyreactivity
QVQLVESGGGLVQAGGSLRLSCAASGFTFYAYAMGWYRQAPGKERELVAAISGRGTSTYYADSVKGRFTISRDNAKNTVYLQMNSLKPEDTAFYYCIKYPLRLYGYDYWGQGTQVTVSS	high polyreactivity
QVQLVESGGGLVQAGGSLRLSCAASGSTFGINAMGWYRQAPGKERDLVAAISSRGGSTYYADSVKGRFTISRDNAKNTVYLLMNSLKPEDTAVYYCAAEFAVSFYWSWLGQDYYYWGQGTQVTVSS	high polyreactivity
QVQLVESGGGLVQAGGSLRLSCAASGRTFARYAMGWYRQAPGKERELVAAISRGGTTNYADSVKGRFTISRDNAKNTVYLQMNSLKPEDTAVYYCNRDFHLIHLSSARLDYWGQGTQVTVSS	low polyreactivity
QVQLVESGGGLVQAGGSLRLICADSGRIFNRYAMGWYRQAPGKEREFVAGITWNGGSTYYADSVKGRFTISRDNSKNTVNLQMNSLKPEDTAVYYCAATHYYYGTSRYDYWGQGTQVTVSS	high polyreactivity
QVQLVETGGGLFQAGGSLRLSCAASGSTFVYYAMGWYRQPPGKERELVAAISSGGNTKYADSVKGRFTISRDNAKNTFYLQMNSLKPEDTAVYYCARETQSYYDHDYWGQGTQVTLSS	low polyreactivity
QVQLVESGGGLVQAGGSLRLSCAASGFIFSRNAMGWYRQAPGKERELVAAITRGGITYYADSVKGRFTISRDNAKNTVYLQMNSLKPEDTAVYYCAAYRTYQAYTGSHYYYWGQGTQVTVSS	high polyreactivity
QVQLVESGGGLVQAGGSLRLSCAASGSIFVYYAMGWYRQAPGKERELVAAINSGSITKYADSVKGRFTISRDNAKNTVYLQMNSLKPEYTAVYYCAARYDNTYRTETSYPRYYSWGQGTQVTVSS	high polyreactivity
QVQLVESGGGLVQAGGSLRLSCAASGNIFGVDAMGWYRQAPGKERELVATITTGGSTYYADSVKGRFTISRDNAKNTVYLQMNSLKPADTAVYYCAADVGGGNYVYYGNDYDDGYWGQGTQVTVSS	low polyreactivity
QVQLVESGGGLVQAGGSLRLSCAASGRIIGYNAMGWYRQAPGKERELVASIRYSGGSTYYADSVKGRFTISRDNAMNTVYLQMNSLKPEDTAVYYCATRVTYRRRFDYWGQGTQVTVSS	high polyreactivity
QVQLVESGGGLVQAGGSLRLSSAASGLIFYWYAMGWYRQAPGKERELVAAISSAGSTNYADSVKGRFTISRDNAKNTVYLQMNSLKPEDTAVYYCAKGGYSPKSVKYYDYWGQGTQVTVSS	low polyreactivity
QVQLVESCGGLVQAGVSLRLSCAASVFKYAMGRYRQAPGKKRELVAAISSGGITSYADSVKGRFTISRDNAKNTVYLQMNSLKPEDTAVYYCNARLRHSQYAYYYWGQGTQVTLSS	high polyreactivity
QVQLVESGGGLVQAGGSLRLSCAASGFISPGYAMGWYRQAPGKERELVAAISVNGGDTYYADSVKGRFTISRDNAKNTVYLQMYSLKPEDTAVYYCAAERGVDDSARYGDYDYWGQGTQVTVSS	low polyreactivity
QVQLVETGGGLVQAGGSLGLSFAASGFIFSYYLMGWYRQAPGKERELVAAITTSGDSTYYADSVKGRFTISSDNAKNTVYLQINRLKPEDSAVYYCAADNYYETIWHYGYWGQGTQVTVSS	high polyreactivity
QVQLVESGGGLVQAGGSLRLSCAASGRTFRYNAMGWYRQAPGKERELVAAITWSGGSTYYADSVKGRFTISRDNAKNTVYLQMNSLKPEDTAVYYCNKVTWHQGHDYWGQGTQVTVSS	low polyreactivity
